This test concerns the target human tumor necrosis factor-α (TNFα) (human) (UniProt P01375). Kind of test: cell-based or functional assay.

Data on one molecule can be found in US20060018906A1.

Chain of human tumor necrosis factor-α (TNFα) (human) (P01375 77-233): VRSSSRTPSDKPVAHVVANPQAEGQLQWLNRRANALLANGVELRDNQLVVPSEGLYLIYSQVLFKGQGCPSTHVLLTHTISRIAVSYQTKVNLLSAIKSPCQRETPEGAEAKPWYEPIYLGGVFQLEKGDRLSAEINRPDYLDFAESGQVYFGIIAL

B1: chimeric mouse/human IgG1 anti-platelet mAb (7E3) (antibody, INN chains, looked up, V domains shown)
VH: EVQLQQSGTVLARPGASVKMSCEASGYTFTNYWMHWVKQRPGQGLEWIGAIYPGNSDTSYIQKFKGKAKLTAVTSTTSVYMELSSLTNEDSAVYYCTLYDGYYVFAYWGQGTLVTVSA
VL: EIVLTQSPVTLSVTPGDSVSLSCRASRDISNNLHWFQQTSHESPRLLIKYASQSMSGIPSRFSGSGSGTDFTLSINSVETEDFGMYFCQQTNSWPYTFGGGTKLEIK
modifications: IgG1
As for B1, the IL-6 concentration in FS-4 fibroblast supernatant; rhTNF 0.3 ng/ml, antibody 4 µg/ml worked out at 1.6 ng/mL; the IL-6 concentration in FS-4 fibroblast supernatant; rhTNF 1.5 ng/ml, antibody 4 µg/ml worked out at 1.96 ng/mL; the IL-6 concentration in FS-4 fibroblast supernatant; rhTNF 7.5 ng/ml, antibody 4 µg/ml was found to be 2.16 ng/mL.
